The RNAGym collection of RNA variant scans (doi:10.1093/molbev/msab373)

B1: Azoarcus group I ribozyme (parent)
chain: GUGCCUUGCGCCGGGAAACCACGCAAGGGAUGGUGUCAAAUUCGGCGAAACCUAAGCGCCCGCCCGGGCGUAUGGCAACGCCGAGCCAAGCUUCGGCGCCUGCGCCGAUGAAGGUGUAGAGACUAGACGGCACCCACCUAAGGCAAACGCUAUGGUGAAGGCAUAGUCCAGGGAGUGGCGAAAGUCACACAAACCGG

Variants of: B1
Test: reverse-splicing fitness (ratio to wild type); higher = more active; in vitro selection; Mg2+ level not given
How it was run: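 An in vitro group I ribozyme library with randomized positions was T7-transcribed and gel-purified. In triplicate, 10 pmol RNA in EPPS pH 7.5 was reacted with 50 pmoles of a 30-nt RNA substrate for 1 h at 37 °C across several added MgCl2 levels (1–48 mM), then stopped with EDTA. Products were reverse transcribed from a substrate-complementary primer, PCR-amplified and sequenced (HiSeq 4000). Fitness is a variant's read proportion after selection over that before, normalised to wild type.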

Variant | reverse-splicing fitness
A120C C150G C169U U176C | 0.0388
A120C C150G C169U U176A | 0.0117
A120C C150G C169U U176G | 0.00544
A120G A145G C150A C169A U176C | 0.0558
A120G A145G C150A C169A U176G | 0.00587
A120G A145G C150A C169A U176A | 0.0345
A120G A145C C150A | 0.0374
A120G A145C C150U | 0.166
A120G A145C C150G | 0.0854
A120G A145U C150A | 0.0603
A120G A145U C150G | 0.07
A120G A145U C150U | 0.384
A120G C150U C169U U176G | 0.011
A120G C150U C169U U176C | 0.159
A120G C150U C169U U176A | 0.136
A120G A145G C150A C169U U176G | 0.00665
A120G A145G C150A C169U U176C | 0.0707
A120G A145G C150A C169U U176A | 0.0726
A120G A145G C150A U176A | 0.0568
A120G A145G C150A U176G | 0.0109
A120G A145G C150A U176C | 0.0809
A120G A145U C150U C169G U176G | 0.00892
A120G A145U C150U C169G U176C | 0.207
A120G A145U C150U C169G U176A | 0.157

Variant | reverse-splicing fitness
A120G C169U U176G | 0.0211
A120G C169U U176A | 0.179
A120G C169U U176C | 0.204
A120C C150U C169G | 0.0172
A120C C150U C169U | 0.345
A120C C150U C169A | 0.0269
A120C C169A U176A | 0.0173
A120C C169A U176C | 0.0233
A120C C169A U176G | 0.00454
A120G A145G C150G C169A U176C | 0.0319
A120G A145G C150G C169A U176G | 0.00777
A120G A145G C150G C169A U176A | 0.0181
A120U A145C C150A C169G U176A | 0.00491
A120U A145C C150A C169G U176C | 0.0032
A120U A145C C150A C169G U176G | 0.00221
A120G C150G C169G | 0.0731
A120G C150G C169U | 0.0614
A120G C150G C169A | 0.0439
A120G A145C C150G C169G U176G | 0.00456
A120G A145C C150G C169G U176C | 0.0117
A120G A145C C150G C169G U176A | 0.0244
A120G C150A C169U U176G | 0.00851
A120G C150A C169U U176C | 0.0621
A120G C150A C169U U176A | 0.0635

Variant | reverse-splicing fitness
A120G A145U C150U C169A U176C | 0.14
A120G A145U C150U C169A U176G | 0.00609
A120G A145U C150U C169A U176A | 0.08
A120G A145U C150G C169A U176A | 0.0196
A120G A145U C150G C169A U176G | 0.00439
A120G A145U C150G C169A U176C | 0.0317
A120G A145G C169G U176G | 0.0103
A120G A145G C169G U176A | 0.221
A120G A145G C169G U176C | 0.268
A120G A145U C150G C169G U176G | 0.00487
A120G A145U C150G C169G U176A | 0.024
A120G A145U C150G C169G U176C | 0.011
A120G A145C C150U C169A U176G | 0.00586
A120G A145C C150U C169A U176C | 0.0659
A120G A145C C150U C169A U176A | 0.0422
A120U A145C C150A C169A U176C | 0.00175
A120U A145C C150A C169A U176A | 0.00216
A120U A145C C150A C169A U176G | 0.00203
A120G A145C C150U C169U | 0.153
A120G A145C C150U C169G | 0.213
A120G A145C C150U C169A | 0.123
A120G | 0.549
A120U | 0.858
A120G A145C C169A U176G | 0.0075

Variant | reverse-splicing fitness
A120G A145C C169A U176C | 0.157
A120G A145C C169A U176A | 0.0967
A120G A145U C150A C169G U176G | 0.00649
A120G A145U C150A C169G U176A | 0.0455
A120G A145U C150A C169G U176C | 0.061
A120U A145C C150G | 0.293
A120U A145C C150A | 0.116
A120C C150U C169A U176A | 0.0206
A120C C150U C169A U176G | 0.00428
A120C C150U C169A U176C | 0.017
A120G A145C C150G C169A U176G | 0.00448
A120G A145C C150G C169A U176C | 0.031
A120G A145C C150G C169A U176A | 0.016
A120G A145G C169A U176C | 0.185
A120G A145G C169A U176G | 0.00693
A120G A145G C169A U176A | 0.114
A120C C169U U176A | 0.155
A120C C169U U176C | 0.174
A120C C169U U176G | 0.0174
A120G C169G | 0.64
A120G C169U | 0.418
A120G C169A | 0.444
A120G A145G C169U U176G | 0.0155
A120G A145G C169U U176A | 0.172

Variant | reverse-splicing fitness
A120G A145G C169U U176C | 0.199
A120G C169G U176C | 0.261
A120G C169G U176A | 0.209
A120G C169G U176G | 0.0117
A120U A145C C150A U176C | 0.061
A120U A145C C150A U176G | 0.0538
A120U A145C C150A U176A | 0.0864
A120U A145C C150A C169U U176G | 0.00358
A120U A145C C150A C169U U176A | 0.00859
A120U A145C C150A C169U U176C | 0.00371
A120G A145U C169U U176G | 0.0221
A120G A145U C169U U176A | 0.174
A120G A145U C169U U176C | 0.194
A120G A145C C150A C169A | 0.029
A120G A145C C150A C169G | 0.0475
A120G A145C C150A C169U | 0.0377
A120U A145C C150G C169A U176C | 0.00228
A120U A145C C150G C169A U176G | 0.00186
A120U A145C C150G C169A U176A | 0.00247
A120G C150G C169G U176C | 0.00733
A120G C150G C169G U176G | 0.00469
A120G C150G C169G U176A | 0.0132
A120G C150G C169A U176G | 0.0055
A120G C150G C169A U176C | 0.0257

Variant | reverse-splicing fitness
A120G C150G C169A U176A | 0.0128
A120G C150U C169A U176G | 0.00612
A120G C150U C169A U176C | 0.126
A120G C150U C169A U176A | 0.0776
A120C C150G C169U | 0.0809
A120C C150G C169G | 0.00811
A120C C150G C169A | 0.0115
A120G A145C C150U U176G | 0.0108
A120G A145C C150U U176A | 0.0853
A120G A145C C150U U176C | 0.0938
A120U A145C C150G C169G | 0.0341
A120U A145C C150G C169A | 0.00349
A120C C150G U176A | 0.0876
A120C C150G U176C | 0.114
A120C C150G U176G | 0.0145
A120C C150G C169A U176G | 0.00553
A120C C150G C169A U176C | 0.00991
A120C C150G C169A U176A | 0.0108
A120G C150U U176G | 0.0157
A120G C150U U176C | 0.164
A120G C150U U176A | 0.125
A120G A145G | 0.503
A120G A145C | 0.479
A120G A145U | 0.508

Variant | reverse-splicing fitness
A120G A145C C169U U176A | 0.181
A120G A145C C169U U176C | 0.19
A120G A145C C169U U176G | 0.0181
A120G A145G C169A | 0.424
A120G A145G C169G | 0.639
A120G A145G C169U | 0.441
A120C C150U C169U U176A | 0.118
A120C C150U C169U U176C | 0.143
A120C C150U C169U U176G | 0.0106
A120G C150A C169U | 0.071
A120G C150A C169G | 0.0903
A120G C150A C169A | 0.0602
A120U A145C | 0.787
A120C U176C | 0.714
A120C U176G | 0.244
A120C U176A | 0.663
A120G A145U C150G C169U U176A | 0.0333
A120G A145U C150G C169U U176G | 0.00602
A120G A145U C150G C169U U176C | 0.0556
A120G A145U C169G U176G | 0.0156
A120G A145U C169G U176A | 0.206
A120G A145U C169G U176C | 0.264
A120G A145C C169A | 0.41
